Reference: PMC4156074, “Inhibition of Plasma Kallikrein by a Highly Specific Active Site Blocking Antibody” (The Journal of Biological Chemistry, 2014)

Legend:
Conditions in all cases: both partners purified
[1] = molecular target: T1, Full-length human plasma kallikrein, activated form (human, UniProt P03952 20-390; P03952 391-638); experiment: SPR; BIAcore 3000, 25 °C, HBS-P; 2-chain HMWK amine-coupled on CM5 (~2000 RU); varying pKal flowed 5 min at 20 ul/min; equilibrium RU fit to Equation 3
T1 construct: also called pKal; active pKal; source: bought: Enzyme Research Laboratories
T1 sequence (P03952 20-390, chain 1 of 2): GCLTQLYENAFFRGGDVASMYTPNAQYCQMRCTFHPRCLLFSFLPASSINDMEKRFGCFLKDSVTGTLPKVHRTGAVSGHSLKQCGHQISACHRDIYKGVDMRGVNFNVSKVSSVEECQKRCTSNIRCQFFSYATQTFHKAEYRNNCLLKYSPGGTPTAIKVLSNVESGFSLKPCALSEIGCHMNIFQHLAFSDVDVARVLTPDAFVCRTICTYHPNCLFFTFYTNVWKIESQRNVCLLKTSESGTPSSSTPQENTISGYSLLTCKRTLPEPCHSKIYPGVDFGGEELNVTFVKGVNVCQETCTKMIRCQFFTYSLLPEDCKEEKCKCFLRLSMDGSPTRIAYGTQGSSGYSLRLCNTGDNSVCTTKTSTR
T1 sequence (P03952 391-638, chain 2 of 2): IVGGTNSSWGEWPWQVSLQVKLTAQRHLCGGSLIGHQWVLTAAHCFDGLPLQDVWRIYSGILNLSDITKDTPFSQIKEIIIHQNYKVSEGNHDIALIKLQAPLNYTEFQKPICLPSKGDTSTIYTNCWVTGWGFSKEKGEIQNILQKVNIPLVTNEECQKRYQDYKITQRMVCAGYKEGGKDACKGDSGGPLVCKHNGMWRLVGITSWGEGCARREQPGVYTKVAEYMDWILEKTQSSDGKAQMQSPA

[2] = molecular target: T2, Full-length human plasma kallikrein, activated form (human, UniProt P03952); experiment: enzyme inhibition (steady state, tight-binding fit); purified Fab fragments on full-length pKal, potency studies like those of Fig. 2A; apparent
T2 construct: also called pKal; active pKal; source: bought: Enzyme Research Laboratories
T2 sequence (P03952 20-390, chain 1 of 2): as the sequence (P03952 20-390, chain 1 of 2) above
T2 sequence (P03952 391-638, chain 2 of 2): as the sequence (P03952 391-638, chain 2 of 2) above

pKal from rat plasma [3] = molecular target: T3, pKal from rat plasma (Rattus norvegicus, UniProt P14272); experiment: as above
T3 construct: also called rat pKal; source: purified from rat plasma by Athens Research and Technology
T3 sequence (P14272 20-638): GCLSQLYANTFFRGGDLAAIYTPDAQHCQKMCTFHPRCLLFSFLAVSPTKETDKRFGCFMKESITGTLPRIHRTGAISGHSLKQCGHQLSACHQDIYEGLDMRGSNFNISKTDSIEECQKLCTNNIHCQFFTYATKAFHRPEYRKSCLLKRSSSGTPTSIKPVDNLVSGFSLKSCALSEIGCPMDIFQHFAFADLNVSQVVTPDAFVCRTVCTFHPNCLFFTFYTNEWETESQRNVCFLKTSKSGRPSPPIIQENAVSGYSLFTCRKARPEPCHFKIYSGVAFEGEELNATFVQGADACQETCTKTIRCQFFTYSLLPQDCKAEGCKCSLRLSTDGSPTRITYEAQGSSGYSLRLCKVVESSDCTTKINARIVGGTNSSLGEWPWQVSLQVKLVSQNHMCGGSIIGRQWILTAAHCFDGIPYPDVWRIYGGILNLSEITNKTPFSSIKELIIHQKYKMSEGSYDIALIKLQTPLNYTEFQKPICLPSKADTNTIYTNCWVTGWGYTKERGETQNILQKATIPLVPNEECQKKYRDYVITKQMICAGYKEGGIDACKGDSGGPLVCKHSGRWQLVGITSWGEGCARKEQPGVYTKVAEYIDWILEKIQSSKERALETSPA

[4] = molecular target: T4, Full-length human plasma prekallikrein (Homo sapiens, UniProt P03952); experiment: SPR; BIAcore 3000, 25 °C, HBS-P (10 mM HEPES pH 7.4, 150 mM NaCl, 0.005% P20); DX-2930 captured on goat anti-human Fc IgG on CM5; 500 nM prekallikrein, pKal or pKal-AEBSF injected 5 min at 20 ul/min, 5 min dissociation
T4 construct: human plasma prekallikrein, single-chain zymogen; also called zymogen; source: bought: Enzyme Research Laboratories

purified pKal from mouse = molecular target: T5, purified pKal from mouse (Mus musculus, UniProt P26262); experiment: enzyme inhibition (steady state, tight-binding fit); DX-2930 on purified pKal of mouse, rat, rabbit and cynomolgus monkey; apparent; data not shown
T5 construct: also called mouse pKal
T5 sequence (P26262 20-638): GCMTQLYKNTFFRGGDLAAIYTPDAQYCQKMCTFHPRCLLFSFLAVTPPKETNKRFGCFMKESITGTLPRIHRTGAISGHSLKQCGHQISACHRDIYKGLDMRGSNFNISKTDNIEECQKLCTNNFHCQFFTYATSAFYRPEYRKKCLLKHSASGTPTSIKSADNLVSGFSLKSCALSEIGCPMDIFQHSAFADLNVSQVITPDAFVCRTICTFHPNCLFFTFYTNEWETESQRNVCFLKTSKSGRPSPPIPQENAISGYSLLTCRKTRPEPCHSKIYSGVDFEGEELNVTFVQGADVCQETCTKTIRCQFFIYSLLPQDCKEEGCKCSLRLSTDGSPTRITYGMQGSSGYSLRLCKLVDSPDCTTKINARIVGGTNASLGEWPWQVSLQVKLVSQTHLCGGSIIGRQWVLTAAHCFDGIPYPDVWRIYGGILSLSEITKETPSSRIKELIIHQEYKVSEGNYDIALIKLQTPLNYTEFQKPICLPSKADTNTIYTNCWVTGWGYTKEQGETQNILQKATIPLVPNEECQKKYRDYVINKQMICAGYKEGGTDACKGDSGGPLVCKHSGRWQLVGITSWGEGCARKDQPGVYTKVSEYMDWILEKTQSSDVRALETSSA

pKal from rat plasma [5] = molecular target: T3, pKal from rat plasma; experiment: as above
pKal from rabbit plasma = molecular target: T6, pKal from rabbit plasma (Oryctolagus cuniculus, UniProt G1T127); experiment: as above
T6 construct: also called rabbit pKal; source: purified from rabbit plasma by Athens Research and Technology

[6] = molecular target: T7, pKal complexed with 2-chain HMWK (Homo sapiens, UniProt P03952;P01042); experiment: enzyme inhibition (steady state, tight-binding fit); DX-2930 IgG (up to 10 nM, 1.5-fold dilutions) incubated 1 h at 30 °C with 1 nM pKal, free or preincubated with 600 nM 2-chain HMWK, in 20 mM Tris-HCl pH 7.5, 150 mM NaCl, 1 mM EDTA, 0.1% PEG-8000, 0.1% Triton X-100; substrate H-Pro-Phe-Arg-AMC at 10, 50 or 100 uM; Ki from Ki app by Equation 2, averaged
T7 construct: heavy chain of 2-chain HMWK, as in m6; light chain of 2-chain HMWK, as in m6; also called pKal·HMWK complex; source: bought proteins (Enzyme Research Laboratories); pKal preincubated with 600 nM (or 4.7 uM) HMWK; copies: + + +
T7 sequence (P03952 20-390, looked up, one chain of several): as the sequence (P03952 20-390, chain 1 of 2) above

B1: 2-chain high molecular weight kininogen (treated with pKal to excise bradykinin) (natural protein, human)
chain 1: QESQSEEIDCNDKDLFKAVDAALKKYNSQNQSNNQFVLYRITEATKTVGSDTFYSFKYEIKEGDCPVQSGKTWQDCEYKDAAKAATGECTATVGKRSSTKFSVATQTCQITPAEGPVVTAQYDCLGCVHPISTQSPDLEPILRHGIQYFNNNTQHSSLFMLNEVKRAQRQVVAGLNFRITYSIVQTNCSKENFLFLTPDCKSLWNGDTGECTDNAYIDIQLRIASFSQNCDIYPGKDFVQPPTKICVGCPRDIPTNSPELEETLTHTITKLNAENNATFYFKIDNVKKARVQVVAGKKYFIDFVARETTCSKESNEELTESCETKKLGQSLDCNAEVYVVPWEKKIYPTVNCQPLGMISLMK
chain 2: SSRIGEIKEETTVSPPHTSMAPAQDEERDSGKEQGHTRRHDWGHEKQRKHNLGHGHKHERDQGHGHQRGHGLGHGHEQQHGLGHGHKFKLDDDLEHQGGHVLDHGHKHKHGHGHGKHKNKGKKNGKHNGWKTEHLASSSEDSTTPSAQTQEKTEGPTPIPSLAKPGVTVTFSDFQDSDLIATMMPPISPAPIQSDDDWIPDIQIDPNGLSFNPISDFPDTTSPKCPGRPWKSVSEINPTTQMKESYYFDLTDGLS
notes: heavy chain of human high molecular weight kininogen after excision of bradykinin; light chain of human high molecular weight kininogen after excision of bradykinin; also called 2-chain HMWK; 2-chain kininogen; source: bought: Enzyme Research Laboratories
Kd [1]: 72 nM

B2: Fab M0201-H06 (Fab, V domains shown)
VH: EVQLLESGGGLVQPGGSLRLSCAASGFTFSHYIMMWVRQAPGKGLEWVSGIYSSGGITVYADSVKGRFTISRDNSKNTLYLQMNSLRAEDTAVYYCAYRRTGVPRRDAFDIWGQGTMVTVSS
VL: DIQMTQSPSTLSASVGDRVTITCRASQSISSWLAWYQQKPGKAPNLLIYKASTLESGVPSRFSGSGSGTEFTLTISSLQPDDFATYYCQQYNTYWTFGQGTKVEIK
notes: M0162-A04 with I103V alone in HV-CDR3; against the heavy chain of m2 it keeps T101 and A108; as the light chain of m2, germ line optimisation aside; source: E. coli, secreted, purified (protein A-Sepharose)
Ki [2]: 0.56 nM

B3: Fab M0162-A04 (lead Fab, parent of the affinity maturation) (Fab, V domains shown)
VH: EVQLLESGGGLVQPGGSLRLSCAASGFTFSHYIMMWVRQAPGKGLEWVSGIYSSGGITVYADSVKGRFTISRDNSKNTLYLQMNSLRAEDTAVYYCAYRRTGIPRRDAFDIWGQGTMVTVSS
VL: DIQMTQSPSTLSASVGDRVTITCRASQSISSWLAWYQQKPGKAPNLLIYKASTLESGVPSRFSGSGSGTEFTLTISSLQPDDFATYYCQQYNTYWTFGQGTKVEIK
notes: as the heavy chain of m2 but with the parental HV-CDR3 residues T101, I103, A108; as the light chain of m2, germ line optimisation aside; source: E. coli, secreted, purified (protein A-Sepharose)
Ki [2]: ~5 nM
Ki (pKal from rat plasma [3]): ~5 nM

B4: DX-2930, fully human IgG1 monoclonal antibody (antibody, V domains shown)
VH: EVQLLESGGGLVQPGGSLRLSCAASGFTFSHYIMMWVRQAPGKGLEWVSGIYSSGGITVYADSVKGRFTISRDNSKNTLYLQMNSLRAEDTAVYYCAYRRIGVPRRDEFDIWGQGTMVTVSS
VL: DIQMTQSPSTLSASVGDRVTITCRASQSISSWLAWYQQKPGKAPKLLIYKASTLESGVPSRFSGSGSGTEFTLTISSLQPDDFATYYCQQYNTYWTFGQGTKVEIK
notes: the Fab portion of the heavy chain is in the deposited structures (as the heavy chain of m2); the rest is the human IgG1 constant region (f-allotype); as the light chain of m2 in the deposited structures; IgG1 (f-allotype); Biotinylated for the ELISA on HUVEC; also called germ line-optimized M0199-A08; copies: 2 + 2
binding result [4]: no binding (tested: 500 nM)
Ki (purified pKal from mouse): 0.17 nM
Ki (pKal from rat plasma [5]): 0.17 nM
Ki (pKal from rabbit plasma): 14.2 nM
Ki [6]: 0.115 ± 0.003 nM

B5: isolate M0199-A08 (Fab, V domains shown)
VH: EVQLLESGGGLVQPGGSLRLSCAASGFTFSHYIMMWVRQAPGKGLEWVSGIYSSGGITVYADSVKGRFTISRDNSKNTLYLQMNSLRAEDTAVYYCAYRRIGVPRRDEFDIWGQGTMVTVSS
VL: DIQMTQSPSTLSASVGDRVTITCRASQSISSWLAWYQQKPGKAPNLLIYKASTLESGVPSRFSGSGSGTEFTLTISSLQPDDFATYYCQQYNTYWTFGQGTKVEIK
notes: M0162-A04 with T101I, I103V and A108E in HV-CDR3; as the heavy chain of m2 before germ line optimisation; as the light chain of m2 before germ line optimisation; also called M0199-A08 variant; source: E. coli, secreted, purified (protein A-Sepharose)
Ki [2]: 0.05 nM
